Source: paper PMC6642009

Target: FITC-SgbA(leader) (Streptomyces globisporus sp. NRRL B-2293)
Experiment: fluorescence polarisation

| Substance | Kd |
| --- | --- |
| His6-SgbL(lyase-kinase 1–548) D369A (domain or fragment) | 353 nM |
| His6-MBP-SgbL(208–318) (domain or fragment) | 31000 nM |
| His6-SgbL(lyase-kinase 1–548) (domain or fragment) | 251 nM |

More lines, in order of falling Kd, values ahead:

| Kd | Substance |
| --- | --- |
| 7110 nM | His6-SgbL(lyase-kinase 1–548) K248A (domain or fragment) |
| 1720 nM | His6-SgbL(lyase-kinase 1–548) E270A (domain or fragment) |
| 576 nM | His6-SgbL(lyase-kinase 1–548) D351A (domain or fragment) |
| 321 nM | His6-SgbL(lyase-kinase 1–548) N356A (domain or fragment) |
